From doi:10.1101/2022.02.02.478874 (bioRxiv, 2022)
“And” between values parts separate entries of the source, which are not always exact repeats. Identical values can stand only once. Like-named read-outs stand apart in the source and are kept apart here. Blank lines part the entries; values can stand above or below the binder they belong to.

Key:
Spindly^250-605 = target: T1, Spindly^250-605 (human, UniProt Q96EA4 250-605); assay: SEC
T1 sequence: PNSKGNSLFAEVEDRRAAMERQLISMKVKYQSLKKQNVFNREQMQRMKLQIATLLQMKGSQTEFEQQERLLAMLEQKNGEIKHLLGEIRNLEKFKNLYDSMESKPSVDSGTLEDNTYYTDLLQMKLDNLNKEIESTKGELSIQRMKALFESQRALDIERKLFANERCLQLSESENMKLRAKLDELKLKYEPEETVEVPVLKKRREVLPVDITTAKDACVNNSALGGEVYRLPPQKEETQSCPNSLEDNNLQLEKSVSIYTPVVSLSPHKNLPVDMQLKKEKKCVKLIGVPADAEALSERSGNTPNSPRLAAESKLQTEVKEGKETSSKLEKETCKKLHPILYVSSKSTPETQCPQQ

[1] = target: the molecule itself
[2] = target: T2, mCherry-tagged full-length Spindly (^mChSpindly^FL) (human), Q96EA4; assay: mass photometry; settings: remark: other sources report otherwise
T2 chain: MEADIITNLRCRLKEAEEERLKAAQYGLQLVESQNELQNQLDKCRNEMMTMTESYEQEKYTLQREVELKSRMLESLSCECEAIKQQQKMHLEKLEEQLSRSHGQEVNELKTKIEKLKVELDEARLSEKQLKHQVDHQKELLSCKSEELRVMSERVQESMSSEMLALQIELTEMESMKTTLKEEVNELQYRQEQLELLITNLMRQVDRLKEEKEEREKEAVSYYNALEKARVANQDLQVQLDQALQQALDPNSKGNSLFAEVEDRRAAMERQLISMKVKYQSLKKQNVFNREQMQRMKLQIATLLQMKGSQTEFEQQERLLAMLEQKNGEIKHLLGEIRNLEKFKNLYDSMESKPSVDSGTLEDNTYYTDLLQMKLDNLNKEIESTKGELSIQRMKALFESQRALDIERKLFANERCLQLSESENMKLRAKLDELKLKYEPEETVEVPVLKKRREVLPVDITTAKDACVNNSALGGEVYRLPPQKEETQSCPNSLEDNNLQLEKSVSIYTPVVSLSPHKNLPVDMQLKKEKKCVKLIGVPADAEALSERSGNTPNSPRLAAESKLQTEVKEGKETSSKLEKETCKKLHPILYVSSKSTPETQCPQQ

mass photometry = target: the molecule itself; assay: mass photometry
crystal structure = target: the molecule itself; assay: crystal structure

- binding result (Spindly^250-605): binds
B1: Spindly^1-250 (domain or fragment)
chain: MEADIITNLRCRLKEAEEERLKAAQYGLQLVESQNELQNQLDKCRNEMMTMTESYEQEKYTLQREVELKSRMLESLSCECEAIKQQQKMHLEKLEEQLSRSHGQEVNELKTKIEKLKVELDEARLSEKQLKHQVDHQKELLSCKSEELRVMSERVQESMSSEMLALQIELTEMESMKTTLKEEVNELQYRQEQLELLITNLMRQVDRLKEEKEEREKEAVSYYNALEKARVANQDLQVQLDQALQQALDP

B2: Spindly^1-275 (domain or fragment)
chain: MEADIITNLRCRLKEAEEERLKAAQYGLQLVESQNELQNQLDKCRNEMMTMTESYEQEKYTLQREVELKSRMLESLSCECEAIKQQQKMHLEKLEEQLSRSHGQEVNELKTKIEKLKVELDEARLSEKQLKHQVDHQKELLSCKSEELRVMSERVQESMSSEMLALQIELTEMESMKTTLKEEVNELQYRQEQLELLITNLMRQVDRLKEEKEEREKEAVSYYNALEKARVANQDLQVQLDQALQQALDPNSKGNSLFAEVEDRRAAMERQLISM
- stoichiometry N [1]: 2 and 4

- stoichiometry N [2]: 2
B3: mCherry-tagged full-length Spindly (^mChSpindly^FL), Q96EA4 1-605 (natural protein)
chain: MEADIITNLRCRLKEAEEERLKAAQYGLQLVESQNELQNQLDKCRNEMMTMTESYEQEKYTLQREVELKSRMLESLSCECEAIKQQQKMHLEKLEEQLSRSHGQEVNELKTKIEKLKVELDEARLSEKQLKHQVDHQKELLSCKSEELRVMSERVQESMSSEMLALQIELTEMESMKTTLKEEVNELQYRQEQLELLITNLMRQVDRLKEEKEEREKEAVSYYNALEKARVANQDLQVQLDQALQQALDPNSKGNSLFAEVEDRRAAMERQLISMKVKYQSLKKQNVFNREQMQRMKLQIATLLQMKGSQTEFEQQERLLAMLEQKNGEIKHLLGEIRNLEKFKNLYDSMESKPSVDSGTLEDNTYYTDLLQMKLDNLNKEIESTKGELSIQRMKALFESQRALDIERKLFANERCLQLSESENMKLRAKLDELKLKYEPEETVEVPVLKKRREVLPVDITTAKDACVNNSALGGEVYRLPPQKEETQSCPNSLEDNNLQLEKSVSIYTPVVSLSPHKNLPVDMQLKKEKKCVKLIGVPADAEALSERSGNTPNSPRLAAESKLQTEVKEGKETSSKLEKETCKKLHPILYVSSKSTPETQCPQQ

B4: ^mChSpindly^76-605 (domain or fragment)
chain: LSCECEAIKQQQKMHLEKLEEQLSRSHGQEVNELKTKIEKLKVELDEARLSEKQLKHQVDHQKELLSCKSEELRVMSERVQESMSSEMLALQIELTEMESMKTTLKEEVNELQYRQEQLELLITNLMRQVDRLKEEKEEREKEAVSYYNALEKARVANQDLQVQLDQALQQALDPNSKGNSLFAEVEDRRAAMERQLISMKVKYQSLKKQNVFNREQMQRMKLQIATLLQMKGSQTEFEQQERLLAMLEQKNGEIKHLLGEIRNLEKFKNLYDSMESKPSVDSGTLEDNTYYTDLLQMKLDNLNKEIESTKGELSIQRMKALFESQRALDIERKLFANERCLQLSESENMKLRAKLDELKLKYEPEETVEVPVLKKRREVLPVDITTAKDACVNNSALGGEVYRLPPQKEETQSCPNSLEDNNLQLEKSVSIYTPVVSLSPHKNLPVDMQLKKEKKCVKLIGVPADAEALSERSGNTPNSPRLAAESKLQTEVKEGKETSSKLEKETCKKLHPILYVSSKSTPETQCPQQ
- stoichiometry N (mass photometry): 2

B5: Spindly^1-100 (domain or fragment)
chain: MEADIITNLRCRLKEAEEERLKAAQYGLQLVESQNELQNQLDKCRNEMMTMTESYEQEKYTLQREVELKSRMLESLSCECEAIKQQQKMHLEKLEEQLSR
- stoichiometry N (crystal structure): 2

B6: ^mChSpindly^ΔRV (natural protein)
chain: MEADIITNLRCRLKEAEEERLKAAQYGLQLVESQNELQNQLDKCRNEMMTMTESYEQEKYTLQREVELKSRMLESLSCECEAIKQQQKMHLEKLEEQLSRSHGQEVNELKTKIEKLKVELDEARLSEKQLKHQVDHQKELLSCKSEELRVMSEQESMSSEMLALQIELTEMESMKTTLKEEVNELQYRQEQLELLITNLMRQVDRLKEEKEEREKEAVSYYNALEKARVANQDLQVQLDQALQQALDPNSKGNSLFAEVEDRRAAMERQLISMKVKYQSLKKQNVFNREQMQRMKLQIATLLQMKGSQTEFEQQERLLAMLEQKNGEIKHLLGEIRNLEKFKNLYDSMESKPSVDSGTLEDNTYYTDLLQMKLDNLNKEIESTKGELSIQRMKALFESQRALDIERKLFANERCLQLSESENMKLRAKLDELKLKYEPEETVEVPVLKKRREVLPVDITTAKDACVNNSALGGEVYRLPPQKEETQSCPNSLEDNNLQLEKSVSIYTPVVSLSPHKNLPVDMQLKKEKKCVKLIGVPADAEALSERSGNTPNSPRLAAESKLQTEVKEGKETSSKLEKETCKKLHPILYVSSKSTPETQCPQQ
- stoichiometry N (mass photometry): 2

B7: ^mChSpindly^Δ276-306 (natural protein)
chain: MEADIITNLRCRLKEAEEERLKAAQYGLQLVESQNELQNQLDKCRNEMMTMTESYEQEKYTLQREVELKSRMLESLSCECEAIKQQQKMHLEKLEEQLSRSHGQEVNELKTKIEKLKVELDEARLSEKQLKHQVDHQKELLSCKSEELRVMSERVQESMSSEMLALQIELTEMESMKTTLKEEVNELQYRQEQLELLITNLMRQVDRLKEEKEEREKEAVSYYNALEKARVANQDLQVQLDQALQQALDPNSKGNSLFAEVEDRRAAMERQLISMKGSQTEFEQQERLLAMLEQKNGEIKHLLGEIRNLEKFKNLYDSMESKPSVDSGTLEDNTYYTDLLQMKLDNLNKEIESTKGELSIQRMKALFESQRALDIERKLFANERCLQLSESENMKLRAKLDELKLKYEPEETVEVPVLKKRREVLPVDITTAKDACVNNSALGGEVYRLPPQKEETQSCPNSLEDNNLQLEKSVSIYTPVVSLSPHKNLPVDMQLKKEKKCVKLIGVPADAEALSERSGNTPNSPRLAAESKLQTEVKEGKETSSKLEKETCKKLHPILYVSSKSTPETQCPQQ
- stoichiometry N [1]: 2 and 4
